Laboratory results taken from US20230053258A1 (RAMOT AT TEL AVIV UNIVERSITY, published 2023).

Molecular target: T1, recombinant human wild type insulin degrading enzyme (WT rhIDE) (human, UniProt P14735 42-1019)
T1 construct: also called WT IDE; active IDE
Experiment: ELISA on coated WT rhIDE
Protocol: Following 3 washes with PBST, 3,3′,5,5′-tetramethylbenzidine (TMB; eBioscience, San Diego, Calif., USA) was added until color appeared. The reaction was stopped by adding 1 M H₂SO₄, and analyzed using a Spectrafluor plus microplate reader at 450 nm.

Row | Binder | EC50 [nM]
1 | A9 Inclonal IgG (human IgG1) (antibody, V domains shown, also called A9 IgG; IgG A9) VH: EVQLLESGGGLVQPGGSLRLSCAASGFTFRSYGMHWVRQAPGRGLEWVSAINSNGDSTYYPDTVKDRFTISRDNSKNTLYLQMNSLRAEDTAVYYCARADYYDSTGYYYHGLDLWGQGTLVTVSS VL: DIVLTQPPSASGTPGQRVTISCSGSRDNIGKNYVSWYQQLPGTAPKLLIYRNNQRPSGVPDRFSGSKSGTSASLAISGLRSEDEADYYCSSYAGSSVIFGGGTKVTVL | ~1
2 | B1 Inclonal IgG (human IgG1) (antibody, V domains shown, also called B1 IgG) VH: not shown VL: DIVLTQSPGTLSLSPGERATLSCRASQSVSSHLAWYQQKPGQAPRLLIYDASNRATGIPDRFSGSGSGTDFTLTISRLEPEDFAVYYCQQYDSYPYTFGQGTKLDIK | ~1
